Experimental data: the supplement of paper PMC9112550, “Optimization of the antimicrobial peptide Bac7 by deep mutational scanning” (BMC Biology, 2022)

System: Escherichia coli TOP10
Experiment: shrunken log2 fold change of peptide-encoding DNA abundance (4.5 h post-induction vs induction); higher = less antimicrobial activity (less host growth inhibition)
Conditions: time post-induction: 4.5 h; library: site-saturation at positions 5, 18, 19, 20
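Also: peptides expressed intracellularly from a pBAD plasmid library in pooled LB shake-flask culture, induced with 0.3% L-arabinose, DNA abundance read by NGS, three biological replicates, DESeq2 with apeglm shrinkage.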

Sequence | shrunken log2 fold change
RRIRIRPPRLPRPRPRPKVCPRP | -0.028
RRIRTRPPRLPRPRPRPRQGPRP | 0.337
RRIRMRPPRLPRPRPRPNLIPRP | -0.0317
RRIRLRPPRLPRPRPRPQRMPRP | -0.124
RRIRFRPPRLPRPRPRPLWKPRP | -0.0606
RRIRDRPPRLPRPRPRPGDTPRP | -0.11
RRIRARPPRLPRPRPRPSLDPRP | 0.735
RRIRIRPPRLPRPRPRPPGIPRP | -0.147
RRIRERPPRLPRPRPRPSAYPRP | -0.354
RRIRIRPPRLPRPRPRPYQQPRP | -0.0163
RRIRWRPPRLPRPRPRPDLHPRP | 0.243
RRIRSRPPRLPRPRPRPKNPPRP | -0.11
RRIRDRPPRLPRPRPRPIYCPRP | 0.0039
RRIRPRPPRLPRPRPRPVTHPRP | -0.227
RRIRSRPPRLPRPRPRPVLGPRP | 0.447
RRIRSRPPRLPRPRPRPAPMPRP | 0.492
RRIRRRPPRLPRPRPRPTVSPRP | 0.119
RRIRRRPPRLPRPRPRPFEYPRP | -0.0276
RRIRDRPPRLPRPRPRPHWLPRP | 0.149
RRIRNRPPRLPRPRPRPHEIPRP | -0.102
RRIRERPPRLPRPRPRPNSQPRP | -0.389
RRIRIRPPRLPRPRPRPRYAPRP | -0.14
RRIRPRPPRLPRPRPRPLFQPRP | -0.0669
RRIRYRPPRLPRPRPRPFMYPRP | -1.14
RRIRPRPPRLPRPRPRPNERPRP | 0.181

Sequence | shrunken log2 fold change
RRIRGRPPRLPRPRPRPKEVPRP | 0.00437
RRIRPRPPRLPRPRPRPDNNPRP | -0.512
RRIRKRPPRLPRPRPRPAKIPRP | -0.266
RRIRMRPPRLPRPRPRPNCPPRP | -0.0204
RRIRYRPPRLPRPRPRPVYAPRP | -0.683
RRIRIRPPRLPRPRPRPEYCPRP | -0.125
RRIRWRPPRLPRPRPRPMRPPRP | 1.15
RRIRDRPPRLPRPRPRPTGDPRP | 0.209
RRIRDRPPRLPRPRPRPNTWPRP | 0.23
RRIRQRPPRLPRPRPRPAHKPRP | -0.0849
RRIRVRPPRLPRPRPRPSSGPRP | -0.39
RRIRERPPRLPRPRPRPFWSPRP | -0.109
RRIRWRPPRLPRPRPRPRNPPRP | 0.113
RRIRRRPPRLPRPRPRPDCSPRP | -0.27
RRIRTRPPRLPRPRPRPVKPPRP | 0.00237
RRIRDRPPRLPRPRPRPTIYPRP | 0.0468
RRIRERPPRLPRPRPRPPCYPRP | -0.396
RRIRTRPPRLPRPRPRPPEHPRP | 0.0826
RRIRDRPPRLPRPRPRPLDPPRP | 0.0323
RRIRQRPPRLPRPRPRPEMKPRP | -0.0789
RRIRLRPPRLPRPRPRPSKRPRP | -0.646
RRIRCRPPRLPRPRPRPFTMPRP | -1.13
RRIRKRPPRLPRPRPRPHHSPRP | -0.298
RRIRIRPPRLPRPRPRPALDPRP | 1.45
RRIRIRPPRLPRPRPRPSSEPRP | -0.299

Sequence | shrunken log2 fold change
RRIRSRPPRLPRPRPRPPTQPRP | 0.356
RRIRDRPPRLPRPRPRPLRDPRP | 0.537
RRIRLRPPRLPRPRPRPTATPRP | 0.817
RRIRHRPPRLPRPRPRPLIKPRP | -0.721
RRIRGRPPRLPRPRPRPCICPRP | 0.102
RRIRQRPPRLPRPRPRPMPRPRP | 0.0657
RRIRDRPPRLPRPRPRPGDLPRP | 0.178
RRIRFRPPRLPRPRPRPNQCPRP | -0.511
RRIRVRPPRLPRPRPRPPNLPRP | 0.239
RRIRYRPPRLPRPRPRPGQFPRP | -0.0455
RRIRSRPPRLPRPRPRPGYCPRP | -0.119
RRIRFRPPRLPRPRPRPNWKPRP | 0.0201
RRIRTRPPRLPRPRPRPRMPPRP | 0.199
RRIRVRPPRLPRPRPRPCDLPRP | -0.238
RRIRPRPPRLPRPRPRPKQLPRP | 0.0245
RRIRERPPRLPRPRPRPRRMPRP | 0.119
RRIRGRPPRLPRPRPRPGAMPRP | 1.25
RRIRLRPPRLPRPRPRPFDLPRP | -0.0989
RRIRNRPPRLPRPRPRPIMSPRP | -0.103
RRIRHRPPRLPRPRPRPARWPRP | 0.386
RRIRSRPPRLPRPRPRPKPWPRP | 0.463
RRIRCRPPRLPRPRPRPTWRPRP | 1.4
RRIRMRPPRLPRPRPRPHAFPRP | 0.179
RRIRRRPPRLPRPRPRPQVHPRP | 0.148
RRIRTRPPRLPRPRPRPGTIPRP | -0.0982

Sequence | shrunken log2 fold change
RRIRWRPPRLPRPRPRPHIDPRP | -0.466
RRIRQRPPRLPRPRPRPRYHPRP | -0.784
RRIRHRPPRLPRPRPRPAREPRP | 0.256
RRIRGRPPRLPRPRPRPQNWPRP | 0.0915
RRIRTRPPRLPRPRPRPGKDPRP | 0.0234
RRIRIRPPRLPRPRPRPCAWPRP | -0.0154
RRIRLRPPRLPRPRPRPVCAPRP | 0.174
RRIRDRPPRLPRPRPRPCCRPRP | -0.197
RRIRIRPPRLPRPRPRPFNRPRP | 0.0284
RRIRYRPPRLPRPRPRPNCIPRP | -0.197
RRIRPRPPRLPRPRPRPIHSPRP | -0.0694
RRIRARPPRLPRPRPRPPYYPRP | 0.0635
RRIRMRPPRLPRPRPRPYMAPRP | -0.162
RRIRERPPRLPRPRPRPMVNPRP | -0.0701
RRIRHRPPRLPRPRPRPIHVPRP | 0.0364
RRIRGRPPRLPRPRPRPRQTPRP | -0.144
RRIRKRPPRLPRPRPRPFRPPRP | -0.0332
RRIRTRPPRLPRPRPRPNISPRP | -0.293
RRIRKRPPRLPRPRPRPIIMPRP | -0.419
RRIRCRPPRLPRPRPRPRGPPRP | 0.816
RRIRARPPRLPRPRPRPMARPRP | -0.132
RRIRGRPPRLPRPRPRPANQPRP | 0.329
RRIRERPPRLPRPRPRPYTQPRP | -0.0502
RRIRCRPPRLPRPRPRPWNPPRP | 0.228
RRIRARPPRLPRPRPRPQSLPRP | 0.026

Sequence | shrunken log2 fold change
RRIRERPPRLPRPRPRPTFMPRP | -0.157
RRIRSRPPRLPRPRPRPFPLPRP | -0.886
RRIRVRPPRLPRPRPRPMYNPRP | -0.315
RRIRHRPPRLPRPRPRPFGSPRP | -0.0134
RRIRQRPPRLPRPRPRPQLSPRP | -0.0914
RRIRLRPPRLPRPRPRPQSQPRP | -0.179
RRIRQRPPRLPRPRPRPKPMPRP | 0.382
RRIRTRPPRLPRPRPRPNEWPRP | -0.0827
RRIRGRPPRLPRPRPRPYARPRP | 0.416
RRIRGRPPRLPRPRPRPWKAPRP | 0.0375
RRIRDRPPRLPRPRPRPESLPRP | 1.01
RRIRFRPPRLPRPRPRPGANPRP | -0.0673
RRIRYRPPRLPRPRPRPLFWPRP | -0.214
RRIRVRPPRLPRPRPRPMFPPRP | 0.086
RRIRTRPPRLPRPRPRPMKEPRP | -0.164
RRIRLRPPRLPRPRPRPSFTPRP | -0.672
RRIRTRPPRLPRPRPRPATFPRP | -0.129
RRIRFRPPRLPRPRPRPHYRPRP | -0.206
RRIRTRPPRLPRPRPRPTYWPRP | -0.00518
RRIRRRPPRLPRPRPRPWCTPRP | -0.0123
RRIRERPPRLPRPRPRPYCWPRP | -0.509
RRIRYRPPRLPRPRPRPLVYPRP | -1.16
RRIRRRPPRLPRPRPRPEFWPRP | 0.736
RRIRYRPPRLPRPRPRPCVVPRP | -0.0208
RRIRYRPPRLPRPRPRPKPAPRP | -0.0511

Sequence | shrunken log2 fold change
RRIRLRPPRLPRPRPRPPHDPRP | 0.397
RRIRSRPPRLPRPRPRPYNKPRP | -1.01
RRIRHRPPRLPRPRPRPMPAPRP | 0.337
RRIRLRPPRLPRPRPRPPMKPRP | -0.144
RRIRHRPPRLPRPRPRPMANPRP | -0.0536
RRIRDRPPRLPRPRPRPYQVPRP | -0.183
RRIRPRPPRLPRPRPRPHMIPRP | -0.98
RRIRLRPPRLPRPRPRPIRIPRP | -0.379
RRIRNRPPRLPRPRPRPSVWPRP | 0.228
RRIRRRPPRLPRPRPRPSESPRP | 0.0539
RRIRCRPPRLPRPRPRPGDTPRP | -0.0505
RRIRCRPPRLPRPRPRPKKPPRP | -0.0369
RRIRCRPPRLPRPRPRPWGSPRP | -0.151
RRIRDRPPRLPRPRPRPSDMPRP | -0.307
RRIRGRPPRLPRPRPRPPLDPRP | 0.989
RRIRTRPPRLPRPRPRPCHRPRP | -0.000687
RRIRERPPRLPRPRPRPMKDPRP | 0.13
RRIRVRPPRLPRPRPRPRETPRP | 0.513
RRIRHRPPRLPRPRPRPNPYPRP | -0.161
RRIRTRPPRLPRPRPRPVVRPRP | -0.00389
RRIRMRPPRLPRPRPRPIEDPRP | 0.224
RRIRCRPPRLPRPRPRPLIMPRP | -0.689
RRIRDRPPRLPRPRPRPVQPPRP | 0.196
RRIRCRPPRLPRPRPRPDQAPRP | 0.288
RRIRVRPPRLPRPRPRPPQRPRP | 0.374
